Reference: patent US20120316324A1 (UCB, published 2012)

Experiments:
[1] = target: T1, hIL13 (human, UniProt P35225 35-146, limits assumed); assay: SPR Biacore 3000, construct captured, 20 nM hIL13 injected
T1 construct: also called human IL-13

[2] = target: T2, human serum albumin (human, UniProt P02768 25-609); assay: SPR (Biacore 3000), construct captured by anti human CH1 antibody on CM5 chip, HSA as analyte
T2 construct: also called HSA; HumanSA

[3] = target: T1, hIL13; assay: SPR (Biacore 3000), construct captured by anti human CH1 antibody on CM5 chip, hIL13 as analyte (single concentration 20 nM)

- Kd [1]: ~0.1 nM
- Kd [2]: 1.22 nM
- koff [2]: 0.000311 s⁻¹
- kon [2]: 255000 M⁻¹ s⁻¹
- Kd [3]: 0.126 nM
- koff [3]: 0.000177 s⁻¹
- kon [3]: 1.4e+06 M⁻¹ s⁻¹
B1: 645Fv-652Fab (L-3xG4S, H-3xG4S) (bispecific antibody, V domains shown)
VH: EVQLLESGGGLVQPGGSLRLSCAVSGIDLSNYAINWVRQAPGKGLEWIGIIWASGTTFYATWAKGRFTISRDSTTVYLQMNSLRAEDTAVYYCARTVPGYSTAPYFDLWGQGTLVTVSS
VL: DIVMTQSPSSVSASVGDRVTITCQSSPSVWSNFLSWYQQKPGKAPKLLIYEASKLTSGVPSRFKGSGSGTDFTLTISSLQPEDFATYYCGGGYSSISDTTFGGGTKVEIK
